Assay results published in IntAct's records for PubMed 30487161.

Target: egln1_human EGLN1 (UniProt Q9GZT9)
Sequence (Q9GZT9 whole entry, looked up): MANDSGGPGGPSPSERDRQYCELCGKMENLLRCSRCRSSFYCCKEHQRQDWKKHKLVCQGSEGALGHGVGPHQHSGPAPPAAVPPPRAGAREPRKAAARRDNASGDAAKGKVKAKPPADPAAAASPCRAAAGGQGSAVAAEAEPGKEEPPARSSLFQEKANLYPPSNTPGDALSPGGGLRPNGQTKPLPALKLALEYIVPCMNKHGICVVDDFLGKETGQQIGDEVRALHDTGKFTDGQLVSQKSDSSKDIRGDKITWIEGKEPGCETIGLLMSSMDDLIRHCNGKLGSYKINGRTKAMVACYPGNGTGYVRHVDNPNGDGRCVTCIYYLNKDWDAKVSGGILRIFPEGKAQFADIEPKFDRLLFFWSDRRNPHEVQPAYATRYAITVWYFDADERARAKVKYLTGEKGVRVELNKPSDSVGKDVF

Sequence of Endothelial PAS domain-containing protein 1 (Homo sapiens), Q99814 N203H (Q99814 whole entry N203H, the tested form may be a part): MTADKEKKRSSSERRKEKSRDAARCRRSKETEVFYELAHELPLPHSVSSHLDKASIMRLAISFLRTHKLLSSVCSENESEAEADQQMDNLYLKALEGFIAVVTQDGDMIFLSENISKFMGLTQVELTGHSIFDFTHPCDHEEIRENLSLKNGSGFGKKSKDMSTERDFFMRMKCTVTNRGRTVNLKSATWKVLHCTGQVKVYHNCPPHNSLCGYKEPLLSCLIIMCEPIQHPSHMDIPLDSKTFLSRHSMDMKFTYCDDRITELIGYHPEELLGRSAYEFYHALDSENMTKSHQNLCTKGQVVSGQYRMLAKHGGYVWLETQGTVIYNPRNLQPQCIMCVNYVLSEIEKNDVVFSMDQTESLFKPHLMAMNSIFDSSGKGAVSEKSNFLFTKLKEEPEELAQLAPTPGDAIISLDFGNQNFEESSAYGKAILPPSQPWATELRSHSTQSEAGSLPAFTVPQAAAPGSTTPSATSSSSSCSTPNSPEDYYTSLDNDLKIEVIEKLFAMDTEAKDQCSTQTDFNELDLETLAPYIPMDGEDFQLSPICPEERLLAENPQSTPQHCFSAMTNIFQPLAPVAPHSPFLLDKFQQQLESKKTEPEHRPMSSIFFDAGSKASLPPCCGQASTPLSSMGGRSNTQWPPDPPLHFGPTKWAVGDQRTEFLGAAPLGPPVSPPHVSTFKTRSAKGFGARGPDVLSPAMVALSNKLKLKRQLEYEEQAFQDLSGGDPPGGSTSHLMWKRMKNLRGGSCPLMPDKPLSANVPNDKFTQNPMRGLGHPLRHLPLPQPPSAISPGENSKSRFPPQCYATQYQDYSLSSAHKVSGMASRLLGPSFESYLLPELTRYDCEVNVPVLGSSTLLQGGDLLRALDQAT
Sequence of Endothelial PAS domain-containing protein 1 (Homo sapiens), Q99814 G724W (Q99814 whole entry G724W, the tested form may be a part): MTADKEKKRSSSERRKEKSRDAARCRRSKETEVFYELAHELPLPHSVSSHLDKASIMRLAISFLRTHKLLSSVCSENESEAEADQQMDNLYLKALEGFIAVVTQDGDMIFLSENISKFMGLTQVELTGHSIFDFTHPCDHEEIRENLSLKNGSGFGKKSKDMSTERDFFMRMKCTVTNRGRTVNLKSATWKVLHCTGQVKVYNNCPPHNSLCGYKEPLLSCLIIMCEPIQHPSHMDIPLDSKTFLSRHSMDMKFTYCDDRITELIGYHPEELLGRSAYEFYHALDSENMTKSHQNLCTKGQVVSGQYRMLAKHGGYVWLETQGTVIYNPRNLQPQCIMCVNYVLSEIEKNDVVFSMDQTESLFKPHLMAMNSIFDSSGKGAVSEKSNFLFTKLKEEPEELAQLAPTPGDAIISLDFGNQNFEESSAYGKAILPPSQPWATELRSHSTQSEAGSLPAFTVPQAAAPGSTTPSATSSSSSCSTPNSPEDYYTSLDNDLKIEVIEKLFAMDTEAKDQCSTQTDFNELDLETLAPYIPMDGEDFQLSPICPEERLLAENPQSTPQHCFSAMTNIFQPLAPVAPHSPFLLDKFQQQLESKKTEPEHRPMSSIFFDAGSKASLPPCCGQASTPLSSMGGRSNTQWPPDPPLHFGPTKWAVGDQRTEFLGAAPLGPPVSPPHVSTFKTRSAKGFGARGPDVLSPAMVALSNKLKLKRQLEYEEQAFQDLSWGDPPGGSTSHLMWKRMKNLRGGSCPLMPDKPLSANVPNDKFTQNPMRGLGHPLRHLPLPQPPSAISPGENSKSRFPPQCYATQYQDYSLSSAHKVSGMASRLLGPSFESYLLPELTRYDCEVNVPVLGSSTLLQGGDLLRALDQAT

effect of a mutation on the interaction | Substance
with no effect | Endothelial PAS domain-containing protein 1 (Homo sapiens), Q99814 G724W
increasing interaction strength | Endothelial PAS domain-containing protein 1 (Homo sapiens), Q99814 N203H
